This series deals with T1, endogenous tobacco RUBISCO small subunit, P69249.
T1 chain: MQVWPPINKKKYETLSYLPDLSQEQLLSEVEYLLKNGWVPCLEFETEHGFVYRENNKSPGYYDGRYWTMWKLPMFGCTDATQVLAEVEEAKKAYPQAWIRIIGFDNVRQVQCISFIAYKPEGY

Data on one protein can be found in patent publication US20090172842.

B1: Griffithsia monilis RUBISCO large subunit with C-terminal 6-His tag, product of the chloroplast transgene cpGMNrbcL (pTCP104 tobacco) (protein)
chain: MANSVEERTRIKNERYESGVIPYAKMGYWDPNYAVKDTDILALFRVSPQPGVDPVEASAAVAGESSTATWTVVWTDLLTACDLYRAKAYKVESVPNTSDQYFAYISYDIDLFEEGSIANLTASIIGNVFGFKAVKALRLEDMRIPVAYLKTFQGPATGIVVERERMDKFGRPFLGATVKPKLGLSGKNYGRVVYEGLRGGLDFLKDDENINSQPFMRWKERFLYSIEAVNRSIAATGEVKGHYMNVTAATMEEMYERAEFAKQLGTVIIMIDLVIGYTAIQTMGIWARKNDMILHLHRAGNSTYSRQKIHGMNFRVICKWMRMAGVDHIHAGTVVGKLEGDPLMIRGFYNTLLLPYLEVNLPQGIFFQQDWASLRKVTPVASGGIHCGQMHQLLDYLGNDVVLQFGGGTIGHPDGIQAGATANRVALESMVIARNEGRDYVAEGPQILRDAAKTCGPLQTALDLWKDITFNYTSTDTADFVETPTANVHHHHHH
B1 had an RUBISCO Activity (RuBP-dependent 14CO2 fixation), pTCP104-1 tobacco crude extract of 0 mU/mg and an RUBISCO Activity (RuBP-dependent 14CO2 fixation), pTCP104-1 tobacco purified rubisco of 2.1 mU/mg.
